The chains are these.
T1: human B7-H3 on the surface of human cell lines (human, UniProt Q5ZPR3 29-534)
T1 construct: whole, on cells; also called B7-H3 present on the surface of cancer cells
T1 sequence (looked up): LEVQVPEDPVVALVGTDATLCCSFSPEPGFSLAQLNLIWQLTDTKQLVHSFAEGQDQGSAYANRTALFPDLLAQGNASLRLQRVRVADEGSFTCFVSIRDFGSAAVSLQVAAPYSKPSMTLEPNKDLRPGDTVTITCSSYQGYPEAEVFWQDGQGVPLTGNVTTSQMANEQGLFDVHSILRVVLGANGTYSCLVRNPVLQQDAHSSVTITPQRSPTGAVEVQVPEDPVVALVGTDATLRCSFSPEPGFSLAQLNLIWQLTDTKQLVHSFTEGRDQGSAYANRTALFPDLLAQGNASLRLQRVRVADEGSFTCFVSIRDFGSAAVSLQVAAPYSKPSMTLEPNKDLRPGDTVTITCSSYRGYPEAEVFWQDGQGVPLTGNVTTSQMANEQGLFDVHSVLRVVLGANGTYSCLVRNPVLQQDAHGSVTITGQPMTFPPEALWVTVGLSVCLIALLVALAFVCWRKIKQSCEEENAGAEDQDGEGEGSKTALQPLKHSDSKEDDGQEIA

B1: BRCA69D (antibody, IgG1, V domains shown)
VH: QVQLQQSGAELARPGASVKLSCKASGYTFTSYWMQWVKQRPGQGLEWIGTIYPGDGDTRYTQKFKGKATLTADKSSSTAYMQLSSLASEDSAVYYCARRGIPRLWYFDVWGAGTTVTVSS
VL: DIQMTQTTSSLSASLGDRVTISCRASQDISNYLNWYQQKPDGTVKLLIYYTSRLHSGVPSRFSGSGSGTDYSLTIDNLEQEDIATYFCQQGNTLPPTFGGGTKLEIK
notes: also called BRCA69A (probable misprint)
B2: PRCA157 (antibody, IgG1, V domains shown)
VH: EVQQVESGGDLVKPGGSLKLSCAASGFTFSSYGMSWVRQTPDKRLEWVATINSGGSNTYYPDSLKGRFTISRDNAKNTLYLQMRSLKSEDTAMYYCARHDGGAMDYWGQGTSVTVSS
VL: DIQMTQSPASLSVSVGETVTITCRASESIYSYLAWYQQKQGKSPQLLVYNTKTLPEGVPSRFSGSGSGTQFSLKINSLQPEDFGRYYCQHHYGTPPWTFGGGTNLEIK
B3: BRCA84D (antibody, IgG1, V domains shown)
VH: DVQLVESGGGLVQPGGSRKLSCAASGFTFSSFGMHWVRQAPEKGLEWVAYISSDSSAIYYADTVKGRFTISRDNPKNTLFLQMTSLRSEDTAMYYCGRGRENIYYGSRLDYWGQGTTLTVSS
VL: DIAMTQSQKFMSTSVGDRVSVTCKASQNVDTNVAWYQQKPGQSPKALIYSASYRYSGVPDRFTGSGSGTDFTLTINNVQSEDLAEYFCQQYNNYPFTFGSGTKLEIK

The first assay deals with T1, human B7-H3 on the surface of human …. Put plainly: FACS, fluorescein-labeled mAb, LNCaP cells.
In the case of B1, the “FACS MFI” value amounted to 92.4 MFI.

As for B2, the “FACS MFI” value turned out to be 16.4 MFI.

Consider B3, for which the “FACS MFI” value turned out to be 16.4 MFI.

A further assay shares this target. The assay is described as follows: FACS, fluorescein-labeled mAb, A498 cells.
Regarding B1, the “FACS MFI” value was 84.1 MFI.

As for B2, the “FACS MFI” value turned out to be 58.8 MFI.

As to B3, the “FACS MFI” value was determined as 30.6 MFI.

The target is the same in the next assay. The assay is described as follows: FACS, fluorescein-labeled mAb, A549 cells. A general note: Flow cytometry measures light scatter and fluorescence of single cells or particles in a stream.
As to B1, the “FACS MFI” value was 60.5 MFI.

In the case of B2, the “FACS MFI” value was 44.3 MFI.

As to B3, the “FACS MFI” value was determined as 25 MFI.

The record behind these values is patent US20120294796A1 (MacroGenics, published 2012).
